Molecular target: T1, CD19 (Homo sapiens, UniProt P15391)
T1 construct: endogenous in cells; host or cells: RAJI cells in vitro
T1 sequence (P15391 20-556): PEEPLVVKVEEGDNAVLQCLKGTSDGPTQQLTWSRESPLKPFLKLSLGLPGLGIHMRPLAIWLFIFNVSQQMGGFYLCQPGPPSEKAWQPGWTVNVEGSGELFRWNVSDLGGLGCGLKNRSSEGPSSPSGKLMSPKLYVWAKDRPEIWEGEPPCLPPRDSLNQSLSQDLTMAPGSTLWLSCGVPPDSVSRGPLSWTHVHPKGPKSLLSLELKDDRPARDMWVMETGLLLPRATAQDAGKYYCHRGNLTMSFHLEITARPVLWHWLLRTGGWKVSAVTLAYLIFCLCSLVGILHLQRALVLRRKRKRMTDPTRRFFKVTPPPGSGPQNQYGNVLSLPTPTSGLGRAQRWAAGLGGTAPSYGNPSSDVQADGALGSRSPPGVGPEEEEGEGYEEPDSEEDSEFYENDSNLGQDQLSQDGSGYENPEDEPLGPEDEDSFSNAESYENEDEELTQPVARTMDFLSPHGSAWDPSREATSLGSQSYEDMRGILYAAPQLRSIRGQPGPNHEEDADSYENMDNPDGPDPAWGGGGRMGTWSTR
Test: Jurkat-NFAT-EGFP (J-N-G) reporter: EGFP induction upon co-culture with RAJI cells
Assay type: cell-based
Settings: co-culture with CD19+ve RAJI cells, compared to wild-type EF1α promoter
Source text: Jurkat cell line (clone E6-1) engineered with a NFAT-dependent EGFP (or GFP) reporter gene was a gift from Dr. Arthur Weiss at University of California San Francisco and have been described to study CAR-signaling ((Wu, C Y et al., Science 350:293-302, 2015). Jurkat cells were maintained in RPMI-1640 medium supplemented with 10% FBS, penicillin and streptomycin.
Use of strong viral promoters in adoptive cellular therapy applications carries the risk of activation of downstream oncogenes and development of cancer. As such, human Elongation Factor 1α (EF1α) promoter is frequently used in adoptive cellular therapy applications as it provides strong expression and is human in origin. A limitation of EF1α promoter, however, is its relatively large size. Although a mini-EF1α promoter has been described, it is much weaker as compared to the EF1α promoter. To determine whether an internal deletion in the EF1α promoter would allow shortening of its length while preserving its promoter strength, a SacII fragment was deleted from the EF1α promoter. […] The vectors also co-expressed EGFP and blasticidin resistance gene via 2A linkers. Lentiviruses were generated in 293FT cells and used to infect J-N-G cells.

B1: EF1α-D-SacII promoter: EF1α promoter from which an internal SacII fragment was deleted (nucleic acid)
DNA: GTGAGGCTCCGGTGCCCGTCAGTGGGCAGAGCGCACATCGCCCACAGTCCCCGAGAAGTTGGGGGGAGGGGTCGGCAATTGAACCGGTGCCTAGAGAAGGTGGCGCGGGGTAAACTGGGAAAGTGATGTCGTGTACTGGCTCCGCCTTTTTCCCGAGGGTGGGGGAGAACCGTATATAAGTGCAGTAGTCGCCGTGAACGTTCTTTTTCGCAACGGGTTTGCCGCCAGAACACAGGTAAGTGCCGTGTGTGGTTCCCGCGGGCGGCGACGGGGCCCGTGCGTCCCAGCGCACATGTTCGGCGAGGCGGGGCCTGCGAGCGCGGCCACCGAGAATCGGACGGGGGTAGTCTCAAGCTGGCCGGCCTGCTCTGGTGCCTGGCCTCGCGCCGCCGTGTATCGCCCCGCCCTGGGCGGCAAGGCTGGCCCGGTCGGCACCAGTTGCGTGAGCGGAAAGATGGCCGCTTCCCGGCCCTGCTGCAGGGAGCTCAAAATGGAGGACGCGGCGCTCGGGAGAGCGGGCGGGTGAGTCACCCACACAAAGGAAAAGGGCCTTTCCGTCCTCAGCCGTCGCTTCATGTGACTCCACGGAGTACCGGGCGCCGTCCAGGCACCTCGATTAGTTCTCGACCTTTTGGAGTACGTCGTCTTTAGGTTGGGGGGAGGGGTTTTATGCGATGGAGTTTCCCCACACTGAGTGGGTGGAGACTGAAGTTAGGCCAGCTTGGCACTTGATGTAATTCTCCTTGGAATTTGCCCTTTTTGAGTTTGGATCTTGGTTCATTCTCAAGCCTCAGACAGTGGTTCAAAGTTTTTTTCTTCCATTTCAGGTGTCGTGA
  induction of EGFP expression by FMC63-BBz CAR: Near equivalent inducton of EGFP expression
